Results taken from patent US20230042913A1 (COUNCIL OF THE QUEENSLAND INSTITUTE OF MEDICAL RESEARCH, published 2023).

T1: mouse RANKL transiently expressed by HEK-293 cells (mouse, UniProt O35235 1-316)
T1 construct: whole, on cells; also called muRANKL
T1 sequence (looked up): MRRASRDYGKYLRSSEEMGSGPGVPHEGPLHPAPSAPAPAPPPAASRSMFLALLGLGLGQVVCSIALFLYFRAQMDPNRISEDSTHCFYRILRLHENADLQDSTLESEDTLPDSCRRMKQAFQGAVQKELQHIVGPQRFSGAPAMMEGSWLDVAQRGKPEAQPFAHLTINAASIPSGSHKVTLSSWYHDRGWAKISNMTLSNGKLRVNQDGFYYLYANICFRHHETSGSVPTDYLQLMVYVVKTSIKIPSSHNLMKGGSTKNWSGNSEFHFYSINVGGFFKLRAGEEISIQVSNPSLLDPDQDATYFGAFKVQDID

T2: mouse PD-1 transiently expressed by HEK-293 cells (mouse, UniProt Q02242 25-288)
T2 construct: whole, on cells; also called muPD-1
T2 sequence (looked up): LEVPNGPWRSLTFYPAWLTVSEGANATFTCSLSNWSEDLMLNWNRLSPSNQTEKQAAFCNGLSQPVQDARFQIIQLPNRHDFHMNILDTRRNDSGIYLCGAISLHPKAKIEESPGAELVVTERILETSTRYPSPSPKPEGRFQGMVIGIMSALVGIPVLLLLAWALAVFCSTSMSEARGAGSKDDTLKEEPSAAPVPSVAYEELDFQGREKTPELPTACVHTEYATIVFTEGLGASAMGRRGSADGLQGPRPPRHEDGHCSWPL


What was measured:
[1] = target: T1, mouse RANKL transiently expressed by …; experiment: flow cytometry competition: blocking of biotinylated RANK-Fc binding to muRANKL on transfected HEK-293 cells
Protocol: FIG. 29 is a graphical representation showing antibody competition of RANKL-RANK binding. HEK-293 cells transiently transfected with mouse RANKL were incubated with various concentrations of either anti-RANKL/PD-1 bispecific, anti-RANKL mAb IK22-5, rat IgG2a isotype control or human IgG1 isotype control for 30 minutes on ice. Secondly, cells were incubated with 2.5 μg of biotinylated recombinant murine RANK-Fc for an additional 30 minutes on ice. After two washes with FACS buffer (PBS+10% FCS), a final incubation with Streptavidin-APC for extra 30 minutes on ice. Samples and data were analyzed on a Fortessa 4 (BD Biosciences) flow cytometer and analyzed with FlowJo v10 software (Tree Star, Inc.). Representative FACS plots and summary data of inhibition of RANK-Fc binding of two independent experiments are shown.

[2] = target: T2, mouse PD-1 transiently expressed by …; experiment: summary sentence of Example 25
[3] = target: T2, mouse PD-1 transiently expressed by …; experiment: flow cytometry competition: blocking of biotinylated PD-L1-Fc binding to muPD-1 on transfected HEK-293 cells
Protocol: FIG. 31 is a graphical representation showing antibody competition of PD-1/PD-L1 binding. HEK-293 cells transiently transfected with mouse PD-1 were incubated with various concentrations of either anti-RANKL/PD-1 bispecific, anti-PD-1 mAb RMP1-14, rat IgG2a isotype control or human IgG1 isotype control for 30 minutes on ice. Secondly, cells were incubated with 2.5 μg of biotinylated recombinant murine PD-L1-Fc for an additional 30 minutes on ice. After two washes with FACS buffer (PBS+10% FCS), a final incubation with Streptavidin-APC for extra 30 minutes on ice. Samples and data were analyzed on a Fortessa 4 (BD Biosciences) flow cytometer and analyzed with FlowJo v10 software (Tree Star, Inc.). Representative FACS plots and summary data of inhibition of PD-L1-Fc binding of two independent experiments are shown.

Binder	IC50 [1] [µg/mL]	binding result [2]	binding result [3]
bispecific anti-RANKL/PD-1 antibody (IK22-5/RMP1-14) (bispecific antibody, also called RMP1-14 CH-CL X IK22/5 WT bispecific; anti-RANKL/PD-1 bispecific) heavy 1: QVQLKESGPGLVLSSATLSLTCTVSGFSLTNYDVSWIRHLPGKGLEWMGGVWLSGNTEYNSDFKSRLSISRDISKSQVFLKMSNLKIEDTGTYYCARDIGTTSDYWGQGVTVTVSSASTKGPSVFPLAPSSKSTSGGTAALGCLVKDYFPEPVTVSWNSGALTSGVHTFPAVLQSSGLYSLSSVVTVPSSSLGTQTYICNVNHKPSNTKVDKKVEPKSCDKTHTCPPCPAPELLGGPSVFLFPPKPKDTLMISRTPEVTCVVVAVSHEDPEVKFNWYVDGVEVHNAKTKPREEQYNSTYRVVSVLTVLHQDWLNGKEYKCKVSNKALPAPIEKTISKAKGQPREPQVYTLPPCRDELTKNQVSLWCLVKGFYPSDIAVEWESNGQPENNYKTTPPVLDSDGSFFLYSKLTVDKSRWQQGNVFSCSVLHEALHNHYTQKSLSLSPGK light 1: DIQVTQSPSFLSASVGDRVTFNCKTSQNINKYLAWYQAKFGEGPKLLIFNADSLQSGIPPRFSGSGSGTDFTLTISGLQPEDFATYFCLQYNSWPTFGSGTKLEIKRTVAAPSVFIFPPSDEQLKSGTASVVCLLNNFYPREAKVQWKVDNALQSGNSQESVTEQDSKDSTYSLSSTLTLSKADYEKHKVYACEVTHQGLSSPVTKSFNRGEC heavy 2: EVQLQESGPGLVKPSQSLSLTCSVTGYSITSSYRWNWIRKFPGNRLEWMGYINSAGISNYNPSLKRRISITRDTSKNQFFLQVNSVTTEDAATYYCARSDNMGTTPFTYWGQGTLVTVSSRTVAAPSVFIFPPSDEQLKSGTASVVCLLNNFYPREAKVQWKVDNALQSGNSQESVTEQDSKDSTYSLSSTLTLSKADYEKHKVYACEVTHQGLSSPVTKSFNRGECDKTHTCPPCPAPELLGGPSVFLFPPKPKDTLMISRTPEVTCVVVAVSHEDPEVKFNWYVDGVEVHNAKTKPREEQYNSTYRVVSVLTVLHQDWLNGKEYKCKVSNKALPAPIEKTISKAKGQPREPQVCTLPPSRDELTKNQVSLSCAVKGFYPSDIAVEWESNGQPENNYKTTPPVLDSDGSFFLVSKLTVDKSRWQQGNVFSCSVLHEALHNHYTQKSLSLSPGK light 2: DIVMTQGTLPNPVPSGESVSITCRSSKSLLYSDGKTYLNWYLQRPGQSPQLLIYWMSTRASGVSDRFSGSGSGTDFTLKISGVEAEDVGIYYCQQGLEFPTFGGGTKLELKASTKGPSVFPLAPSSKSTSGGTAALGCLVKDYFPEPVTVSWNSGALTSGVHTFPAVLQSSGLYSLSSVVTVPSSSLGTQTYICNVNHKPSNTKVDKKVEPKSC	2.6	binds	
anti-PD-1 mAb RMP1-14 (rat IgG2a) (antibody, V domains shown, Rat IgG2a monoclonal antibody; also called anti-muPD-1 antibody (RMP1-14 rat IgG2a)) VH: EVQLQESGPGLVKPSQSLSLTCSVTGYSITSSYRWNWIRKFPGNRLEWMGYINSAGISNYNPSLKRRISITRDTSKNQFFLQVNSVTTEDAATYYCARSDNMGTTPFTYWGQGTLVTVSS VL: DIVMTQGTLPNPVPSGESVSITCRSSKSLLYSDGKTYLNWYLQRPGQSPQLLIYWMSTRASGVSDRFSGSGSGTDFTLKISGVEAEDVGIYYCQQGLEFPTFGGGTKLELK			binds
anti-RANKL mAb IK22-5 (rat IgG2a) (antibody, V domains shown, Rat IgG2a monoclonal antibody; also called anti-muRANKL antibody (IK22-5 rat IgG2a)) VH: QVQLKESGPGLVLSSATLSLTCTVSGFSLTNYDVSWIRHLPGKGLEWMGGVWLSGNTEYNSDFKSRLSISRDISKSQVFLKMSNLKIEDTGTYYCARDIGTTSDYWGQGVTVTVSS VL: DIQVTQSPSFLSASVGDRVTFNCKTSQNINKYLAWYQAKFGEGPKLLIFNADSLQSGIPPRFSGSGSGTDFTLTISGLQPEDFATYFCLQYNSWPTFGSGTKLEIK	1.1		
